Columns and labels:
[1] = nuclear/cytosolic fractionation and immunofluorescence
[2] = HA-Ub in-cell ubiquitination, anti-HA and anti-K48 blot; conditions: glycan lost; control: untreated / control shRNA
[3] = immunoblot of endogenous YTHDF2, hepatoma cells; conditions: control: untreated / control shRNA
[4] = CHX chase, endogenous YTHDF2 in HepAD38; conditions: glycan lost; control: control shRNA
[5] = CHX chase, Flag-YTHDF2 in HepG2-HBV1.3; conditions: glycan lost; control: control shRNA
[6] = CHX chase, HepG2-HBV1.3-shYTHDF2; conditions: glycan gained; control: untreated Flag-YTHDF2-WT
[7] = in vitro ubiquitination with His-OGT and UDP-GlcNAc; conditions: glycan lost; control: YTHDF2-WT
[8] = CHX chase, HepG2-HBV1.3-shYTHDF2, anti-Flag blot; conditions: glycan lost; control: YTHDF2-WT
[9] = actinomycin D chase, RT-qPCR, HepG2-HBV1.3-shYTHDF2; conditions: glycan lost; control: YTHDF2-WT
[10] = HA-Ub in-cell ubiquitination, Flag IP, MG132; conditions: glycan lost; control: YTHDF2-WT

B1: YTHDF2: OSMI-1 (protein)
parent chain: MSASSLLEQRPKGQGNKVQNGSVHQKDGLNDDDFEPYLSPQARPNNAYTAMSDSYLPSYYSPSIGFSYSLGEAAWSTGGDTAMPYLTSYGQLSNGEPHFLPDAMFGQPGALGSTPFLGQHGFNFFPSGIDFSAWGNNSSQGQSTQSSGYSSNYAYAPSSLGGAMIDGQSAFANETLNKAPGMNTIDQGMAALKLGSTEVASNVPKVVGSAVGSGSITSNIVASNSLPPATIAPPKPASWADIASKPAKQQPKLKTKNGIAGSSLPPPPIKHNMDIGTWDNKGPVAKAPSQALVQNIGQPTQGSPQPVGQQANNSPPVAQASVGQQTQPLPPPPPQPAQLSVQQQAAQPTRWVAPRNRGSGFGHNGVDGNGVGQSQAGSGSTPSEPHPVLEKLRSINNYNPKDFDWNLKHGRVFIIKSYSEDDIHRSIKYNIWCSTEHGNKRLDAAYRSMNGKGPVYLLFSVNGSGHFCGVAEMKSAVDYNTCAGVWSQDKWKGRFDVRWIFVKDVPNSQLRHIRLENNENKPVTNSRDTQEVPLEKAKQVLKIIASYKHTTSIFDDFSHYEKRQEEEESVKKERQGRGK
Q: For B1, which localisation_or_trafficking ([1]; glycan lost, control: untreated) is on record?
A: Its localisation_or_trafficking is “no change”.

Q: What about the “other: ubiquitination” value [2] of the same protein?
A: The value was “increases”.

Q: And the expression_or_secretion ([3]; glycan lost)?
A: Its expression_or_secretion is “decreases”.

B2: YTHDF2: OGT knockdown (protein)
parent chain: MSASSLLEQRPKGQGNKVQNGSVHQKDGLNDDDFEPYLSPQARPNNAYTAMSDSYLPSYYSPSIGFSYSLGEAAWSTGGDTAMPYLTSYGQLSNGEPHFLPDAMFGQPGALGSTPFLGQHGFNFFPSGIDFSAWGNNSSQGQSTQSSGYSSNYAYAPSSLGGAMIDGQSAFANETLNKAPGMNTIDQGMAALKLGSTEVASNVPKVVGSAVGSGSITSNIVASNSLPPATIAPPKPASWADIASKPAKQQPKLKTKNGIAGSSLPPPPIKHNMDIGTWDNKGPVAKAPSQALVQNIGQPTQGSPQPVGQQANNSPPVAQASVGQQTQPLPPPPPQPAQLSVQQQAAQPTRWVAPRNRGSGFGHNGVDGNGVGQSQAGSGSTPSEPHPVLEKLRSINNYNPKDFDWNLKHGRVFIIKSYSEDDIHRSIKYNIWCSTEHGNKRLDAAYRSMNGKGPVYLLFSVNGSGHFCGVAEMKSAVDYNTCAGVWSQDKWKGRFDVRWIFVKDVPNSQLRHIRLENNENKPVTNSRDTQEVPLEKAKQVLKIIASYKHTTSIFDDFSHYEKRQEEEESVKKERQGRGK
Q: Which expression_or_secretion ([3]; glycan lost) does the source give for B2 here?
A: The expression_or_secretion was “decreases”.

B3: YTHDF2: shOGT (protein)
parent chain: MSASSLLEQRPKGQGNKVQNGSVHQKDGLNDDDFEPYLSPQARPNNAYTAMSDSYLPSYYSPSIGFSYSLGEAAWSTGGDTAMPYLTSYGQLSNGEPHFLPDAMFGQPGALGSTPFLGQHGFNFFPSGIDFSAWGNNSSQGQSTQSSGYSSNYAYAPSSLGGAMIDGQSAFANETLNKAPGMNTIDQGMAALKLGSTEVASNVPKVVGSAVGSGSITSNIVASNSLPPATIAPPKPASWADIASKPAKQQPKLKTKNGIAGSSLPPPPIKHNMDIGTWDNKGPVAKAPSQALVQNIGQPTQGSPQPVGQQANNSPPVAQASVGQQTQPLPPPPPQPAQLSVQQQAAQPTRWVAPRNRGSGFGHNGVDGNGVGQSQAGSGSTPSEPHPVLEKLRSINNYNPKDFDWNLKHGRVFIIKSYSEDDIHRSIKYNIWCSTEHGNKRLDAAYRSMNGKGPVYLLFSVNGSGHFCGVAEMKSAVDYNTCAGVWSQDKWKGRFDVRWIFVKDVPNSQLRHIRLENNENKPVTNSRDTQEVPLEKAKQVLKIIASYKHTTSIFDDFSHYEKRQEEEESVKKERQGRGK
Q: Which results are given for B3?
A: other: ubiquitination [2]: increases; degradation_or_half_life [4]: decreases; degradation_or_half_life [5]: decreases

B4: YTHDF2: TMG (protein)
parent chain: MSASSLLEQRPKGQGNKVQNGSVHQKDGLNDDDFEPYLSPQARPNNAYTAMSDSYLPSYYSPSIGFSYSLGEAAWSTGGDTAMPYLTSYGQLSNGEPHFLPDAMFGQPGALGSTPFLGQHGFNFFPSGIDFSAWGNNSSQGQSTQSSGYSSNYAYAPSSLGGAMIDGQSAFANETLNKAPGMNTIDQGMAALKLGSTEVASNVPKVVGSAVGSGSITSNIVASNSLPPATIAPPKPASWADIASKPAKQQPKLKTKNGIAGSSLPPPPIKHNMDIGTWDNKGPVAKAPSQALVQNIGQPTQGSPQPVGQQANNSPPVAQASVGQQTQPLPPPPPQPAQLSVQQQAAQPTRWVAPRNRGSGFGHNGVDGNGVGQSQAGSGSTPSEPHPVLEKLRSINNYNPKDFDWNLKHGRVFIIKSYSEDDIHRSIKYNIWCSTEHGNKRLDAAYRSMNGKGPVYLLFSVNGSGHFCGVAEMKSAVDYNTCAGVWSQDKWKGRFDVRWIFVKDVPNSQLRHIRLENNENKPVTNSRDTQEVPLEKAKQVLKIIASYKHTTSIFDDFSHYEKRQEEEESVKKERQGRGK
Q: Which results are given for B4?
A: localisation_or_trafficking ([1]; glycan gained, control: untreated): no change; degradation_or_half_life [6]: increases; expression_or_secretion ([3]; glycan gained): increases

B5: YTHDF2: S263A (protein)
parent chain: MSASSLLEQRPKGQGNKVQNGSVHQKDGLNDDDFEPYLSPQARPNNAYTAMSDSYLPSYYSPSIGFSYSLGEAAWSTGGDTAMPYLTSYGQLSNGEPHFLPDAMFGQPGALGSTPFLGQHGFNFFPSGIDFSAWGNNSSQGQSTQSSGYSSNYAYAPSSLGGAMIDGQSAFANETLNKAPGMNTIDQGMAALKLGSTEVASNVPKVVGSAVGSGSITSNIVASNSLPPATIAPPKPASWADIASKPAKQQPKLKTKNGIAGSSLPPPPIKHNMDIGTWDNKGPVAKAPSQALVQNIGQPTQGSPQPVGQQANNSPPVAQASVGQQTQPLPPPPPQPAQLSVQQQAAQPTRWVAPRNRGSGFGHNGVDGNGVGQSQAGSGSTPSEPHPVLEKLRSINNYNPKDFDWNLKHGRVFIIKSYSEDDIHRSIKYNIWCSTEHGNKRLDAAYRSMNGKGPVYLLFSVNGSGHFCGVAEMKSAVDYNTCAGVWSQDKWKGRFDVRWIFVKDVPNSQLRHIRLENNENKPVTNSRDTQEVPLEKAKQVLKIIASYKHTTSIFDDFSHYEKRQEEEESVKKERQGRGK
Q: For B5, which localisation_or_trafficking ([1]; glycan lost, control: YTHDF2-WT) is on record?
A: Its localisation_or_trafficking is “no change”.

Q: What about the “other: ubiquitination” value [7] of the same protein?
A: Its value is “increases”.

Q: And the degradation_or_half_life [8]?
A: Its degradation_or_half_life is “decreases”.

Q: What about the “other: stabilisation of target mRNA” value [9] of the same protein?
A: The value was “decreases”.

Q: What about the “other: ubiquitination” value [10] of the same protein?
A: Its value is “increases”.

Reference: publication PMC9918532
